The values below come from article doi:10.1101/2020.06.17.157982.

Some results are limits rather than exact numbers.

biotinylated human ACE2 ectodomain, which contains its natural dimerization domain (ACROBiosystems AC2-H82E6) (human), sequence (Q9BYF1 18-740): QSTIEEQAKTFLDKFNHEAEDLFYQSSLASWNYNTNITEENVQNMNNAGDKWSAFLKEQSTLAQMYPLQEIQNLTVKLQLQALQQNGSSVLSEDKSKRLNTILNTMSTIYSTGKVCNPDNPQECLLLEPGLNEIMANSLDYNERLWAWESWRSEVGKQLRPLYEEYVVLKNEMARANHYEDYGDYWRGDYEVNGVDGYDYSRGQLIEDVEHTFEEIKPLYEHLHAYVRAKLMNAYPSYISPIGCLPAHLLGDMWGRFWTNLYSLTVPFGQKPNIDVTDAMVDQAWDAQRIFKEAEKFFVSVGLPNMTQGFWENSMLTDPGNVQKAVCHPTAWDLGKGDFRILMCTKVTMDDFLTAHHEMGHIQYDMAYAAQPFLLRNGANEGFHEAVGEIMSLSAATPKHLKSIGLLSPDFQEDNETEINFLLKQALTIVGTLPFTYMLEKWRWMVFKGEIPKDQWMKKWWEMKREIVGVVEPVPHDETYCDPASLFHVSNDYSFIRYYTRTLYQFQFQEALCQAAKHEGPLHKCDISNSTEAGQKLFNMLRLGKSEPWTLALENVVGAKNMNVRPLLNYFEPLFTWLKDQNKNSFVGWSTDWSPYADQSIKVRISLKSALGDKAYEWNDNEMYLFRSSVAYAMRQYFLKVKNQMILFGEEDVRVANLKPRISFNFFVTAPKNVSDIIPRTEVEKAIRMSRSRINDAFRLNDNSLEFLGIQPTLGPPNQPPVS

The experiment addresses biotinylated human ACE2 ectodomain, which contains its natural dimerization domain (ACROBiosystems AC2-H82E6) (human) (UniProt Q9BYF1). Description: FACS. For orientation: In flow cytometry, cells or beads pass a laser one at a time.
The term Kd denotes the constant that tells how readily two partners part at equilibrium. Low readings indicate a tighter complex, high ones a looser complex. In turn, WIV1 RBD, yeast-displayed came in with a Kd of 0.017 nM. For the substance ZC45 RBD, yeast-displayed, the Kd was more than 1000 nM.

ZXC21 RBD, yeast-displayed registered a Kd of more than 1000 nM.
